Data as given in article PMC2836958 (Molecular Biology of the Cell, 2010).
Like-named read-outs stand apart in the source and are kept apart here.

B1: GST-Vps20(C) (domain or fragment, S. cerevisiae, UniProt Q04272 101-221, looked up)
chain: QFINGLKNGNEILKKLNKEFSNVDELMDDVQDQIAYQNEINETLSRSLVGTSNYEDDLDKELDALESELNPEKMNNAKVANMPSTEGLPSLPQGEQTEQKEREEFATEERSDTKEPLALLS
B2: GST-Did2 (natural protein, S. cerevisiae, UniProt P69771 1-204, looked up)
chain: MSRNSAAGLENTLFQLKFTSKQLQKQANKASKEEKQETNKLKRALNENEDISRIYASNAIRKKNERLQLLKLASRVDSVASRVQTAVTMRQVSASMGQVCKGMDKALQNMNLQQITMIMDKFEQQFEDLDTSVNVYEDMGVNSDAMLVDNDKVDELMSKVADENGMELKQSAKLDNVPEIKAKEVNVDDEKEDKLAQRLRALRG
B3: GST-CT(Did2) (domain or fragment, S. cerevisiae, UniProt P69771 113-204, looked up)
chain: QQITMIMDKFEQQFEDLDTSVNVYEDMGVNSDAMLVDNDKVDELMSKVADENGMELKQSAKLDNVPEIKAKEVNVDDEKEDKLAQRLRALRG
B4: Ist1 (natural protein, S. cerevisiae, UniProt P53843 1-298, looked up)
chain: MAPSMIPFTIKLKTCLKMCIQRLRYAQEKQQAIAKQSRRQVAQLLLTNKEQKAHYRVETLIHDDIHIELLEILELYCELLLARVQVINDISTEEQLVKEHMDDGINEAIRSLIYAILFVDEVKELSQLKDLMAWKINVEFVNGVIADHIDVPEKIIKKCSPSVPKEELVDLYLKEIAKTYDVPYSKLENSLSSSSSNISSDFSDPSGDIEDNDEEKPILALDNDDNDNADAKHPITVKKPRQNSENIKNELKIPKDIKKEVIEKKQSEKKTTKRKTKKEQENDELDELKKRFDALRRK

Assays:
Test in all cases: pull-down
Vps4^E233Q [1] = molecular target: T1, Vps4^E233Q (S. cerevisiae, UniProt P52917 1-437, E233Q)
T1 sequence (looked up): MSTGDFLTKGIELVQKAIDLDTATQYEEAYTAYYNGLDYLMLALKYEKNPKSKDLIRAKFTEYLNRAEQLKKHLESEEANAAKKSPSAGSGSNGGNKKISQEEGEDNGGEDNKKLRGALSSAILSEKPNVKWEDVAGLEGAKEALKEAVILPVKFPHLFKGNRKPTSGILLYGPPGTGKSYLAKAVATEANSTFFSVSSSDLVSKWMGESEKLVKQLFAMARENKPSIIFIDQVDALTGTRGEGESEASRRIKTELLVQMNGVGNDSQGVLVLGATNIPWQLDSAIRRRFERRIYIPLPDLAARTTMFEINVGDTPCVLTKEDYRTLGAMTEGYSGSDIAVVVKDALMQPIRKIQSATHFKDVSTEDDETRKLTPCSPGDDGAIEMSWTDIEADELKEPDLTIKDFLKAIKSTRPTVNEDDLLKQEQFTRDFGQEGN

Ist1 = molecular target: B4
Vps4^E233Q [2] = molecular target: T1, Vps4^E233Q; remark: listed apart in the source

B1: binds (Vps4^E233Q [1]).

B2: binds (Ist1).

B3: binds (Ist1).

B4: binds (Vps4^E233Q [2]).
